{"source": "patent US12012599B2", "about": "“Compositions and methods for modulating left-right differentiation factor (LEFTY) and bone morphogenic factor (BMP)” (CZ Biohub SF LLC, priority 2018, dated 2024)", "molecules": {"B1": {"name": "LEFTY1: left-right determination factor 1, secreted TGF-β superfamily protein; generic LEFTY may mean LEFTY1 or LEFTY2 (protein, UniProt O75610 77-366, looked up)", "Left-right determination …": "RFSQSFREVAGRFLALEASTHLLVFGMEQRLPPNSELVQAVLRLFQEPVPKAALHRHGRLSPRSARARVTVEWLRVRDDGSNRTSLIDSRLVSVHESGWKAFDVTEAVNFWQQLSRPRQPLLLQVSVQREHLGPLASGAHKLVRFASQGAPAGLGEPQLELHTLDLGDYGAQGDCDPEAPMTEGTRCCRQEMYIDLQGMKWAENWVLEPPGFLAYECVGTCRQPPEALAFKWPFLGPRQCIASETDSLPMIVSIKEGGRTRPQVVSLPNMRVQKCSCASDGALVPRRLQP"}}, "key": {"[1]": {"tested_on": "pSMAD5", "assay": "Western-blot of pSMAD5 in Comma-D mammary epithelial cells", "assay_type": "cell-based, mouse", "conditions": "Comma-D cells blocked with LEFTY1 200 ng/ml 1 hour, stimulated with BMP7 and Nodal 50 ng/ml 30 minutes", "description": "FIGS. 4J-4L. LEFTY1 inhibits pSMAD2 and pSMAD5 in Comma-D mouse mammary epithelial cells. […] Comma-D cells were serum starved 16 hours and blocked with LEFTY1 (200 ng/ml) for 1 hour and stimulated with BMP7 (50 ng/ml) and Nodal (50 ng/ml) for 30 minutes in serum free media. Cells were harvested in 1×RIPA Buffer with 1× protease and phosphatase inhibitors on ice. Lysates were diluted in 4× sample buffer and boiled at 95° C. for 5 minutes and then run on a 10% SDS-page gradient gels at 100V for 1 hour. […] The membranes were incubated with either pSMAD2, pSMAD5, total SMAD2/3 or SMAD1/5/8 antibodies overnight. Incubation with secondary antibodies containing fluorophores at 1:20,000 dilution (IRDye 800CW conjugated goat anti-rabbit #926-32211, IRDye 680 conjugated goat anti-mouse antibodies #926-32220, LI-COR Biosciences, Lincoln, NE) enabled visualization on the Odyssey Infrared Imaging System from LI-COR Biosciences. […] Data are represented as median±S.D. Statistical analysis, one-way ANOVA with post-hoc Tukey multiple comparison, ****p<0.0001, ***p<0.001; unless stated analysis is non-significant with p>0.05."}, "[2]": {"target": "T1, BMP7-BMPR2 interaction (Homo sapiens, UniProt Q13873)", "T1 construct": "endogenous in cells; host or cells: MDA-MB-231", "T1 sequence (Q13873 27-1038)": "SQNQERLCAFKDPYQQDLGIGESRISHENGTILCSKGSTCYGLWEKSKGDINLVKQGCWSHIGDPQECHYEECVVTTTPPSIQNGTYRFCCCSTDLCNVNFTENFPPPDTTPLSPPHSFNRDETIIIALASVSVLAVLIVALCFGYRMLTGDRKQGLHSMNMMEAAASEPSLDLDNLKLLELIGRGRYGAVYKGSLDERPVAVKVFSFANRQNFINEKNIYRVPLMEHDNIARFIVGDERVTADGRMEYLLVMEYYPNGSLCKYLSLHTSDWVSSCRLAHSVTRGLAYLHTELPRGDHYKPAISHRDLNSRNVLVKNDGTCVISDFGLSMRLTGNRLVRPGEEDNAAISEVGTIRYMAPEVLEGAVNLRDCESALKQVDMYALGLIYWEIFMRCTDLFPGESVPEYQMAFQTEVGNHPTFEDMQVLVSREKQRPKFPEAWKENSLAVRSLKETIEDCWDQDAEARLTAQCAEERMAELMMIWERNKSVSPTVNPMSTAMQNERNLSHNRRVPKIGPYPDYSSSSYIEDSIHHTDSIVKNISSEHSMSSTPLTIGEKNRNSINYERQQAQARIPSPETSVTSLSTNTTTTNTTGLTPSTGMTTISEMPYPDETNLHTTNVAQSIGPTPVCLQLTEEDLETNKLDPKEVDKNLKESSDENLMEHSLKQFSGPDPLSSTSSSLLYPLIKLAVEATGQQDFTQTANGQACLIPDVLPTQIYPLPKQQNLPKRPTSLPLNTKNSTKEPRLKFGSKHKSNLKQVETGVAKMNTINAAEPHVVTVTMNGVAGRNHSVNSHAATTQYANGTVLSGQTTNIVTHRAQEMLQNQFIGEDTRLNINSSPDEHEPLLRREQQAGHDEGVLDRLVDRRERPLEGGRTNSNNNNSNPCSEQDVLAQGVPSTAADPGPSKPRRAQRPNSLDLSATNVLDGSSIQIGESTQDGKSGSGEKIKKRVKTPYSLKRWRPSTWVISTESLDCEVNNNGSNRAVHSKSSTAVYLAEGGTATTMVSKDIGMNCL", "assay": "Proximity Ligation Assay of BMP7-BMPR2 interaction in MDA-MB-231", "assay_type": "cell-based", "conditions": "50 ng/mL BMP7 30 minutes, exogenous LEFTY 200 ng/mL", "description": "FIGS. 20 and 21 are data from an experiment in which the breast cancer cell line MDA-MB-231 was plated and serum starved for 24 hours. 50 ng/mL BMP7 was added for 30 minutes to activate pSMAD5, either in the absence or presence of exogenous LEFTY (200 ng/mL). LEFTY-BMPR2 interaction, BMP7-BMPR2 interaction (as visualized by Proximity Ligation Assay, red), pSMAD5 status (As visualized by Immunofluorescence, green) were monitored and captured.\nFor the PLA assay (DUOLink, OLink Biosciences, Sigma-Aldrich #DUO92102), cells were seeded and treated on 13 mm glass coverslips previously coated with Poly-L-Lysine (Millipore). The cells were fixed with ice cold 100% Methanol for 5 minutes at −20° C. and then rehydrated thrice in PBS for 5 min each. Coverslips were blocked for 30 min with PBS+3% BSA and then incubated with appropriate dilution of primary antibodies in PBS+1% BSA for 1 h in a moist environment at room temperature. Rabbit anti-LEFTY1 and Thermo mouse anti-BMPR2 were used to characterize the interaction between LEFTY and BMPR2 (Table S2). […]\nBreast cancer cell line MDA-MB-231 was plated and serum starved for 24 hours. […] LEFTY-BMPR2 interaction, BMP7-BMPR2 interaction (as visualized by Proximity Ligation Assay, red), pSMAD5 status (As visualized by Immunofluorescence, green) were monitored and captured."}}}
{"molecule": "B1", "values": [{"measurement": "pSMAD5 signal", "setting": "[1]", "result": "inhibited"}, {"measurement": "BMP7-BMPR2 interaction", "setting": "[2]", "result": "reduces BMP7-BMPR2 interactions"}]}
